Measurements from patent publication US20210087250A1, “PHARMACEUTICAL COMPOSITIONS FOR THE TRANSMUCOSAL DELIVERY OF THERAPEUTIC PEPTIDES AND PROTEINS” (CYPRUMED GMBH, priority 2018, published 2021).
Like-named read-outs stand apart in the source and are kept apart here.

Assays:
RPMI 2650 cells = test: CellTiter 96 AQueous One Solution cell proliferation cytotoxicity assay (MTS); format: cell-based, human; conditions: 2.5% and 5.0% (m/V) in KRB, up to 120 min
Method: CellTiter 96® AQueous One Solution Cell proliferation Assay from Promega (Mannheim, Germany) is a colorimetric method for determining the number of viable cells in a cytotoxicity assay. The MTS tetrazolium compound is bioreduced by viable cells in a colored formazan product. The quantity of formazan is directly proportional to the number of living cells and can be measured by absorbance at 490 nm. This assay was performed to determinate cytotoxic effects of Arginine HCl in the concentrations of 2.5% and 5.0% (m/V) on RPMI 2650 cells.
RPMI 2650 cells were seeded onto a 96-well tissue culture test plate at a density of 60,000 cells per well for 24 h. Arginine HCl was dissolved in KRB. Medium was removed from the cells and replaced by 100 μL excipient solutions per well. Cells were incubated with excipient solutions for 0 min, 15 min, 30 min, 60 min and 120 min. Furthermore, cells were incubated with KRB, 1.0% Triton-X solution (V/V) for the same incubation periods as negative and positive controls, respectively. Bacitracin (BAC) served as reference.
The CellTiter 96® AQueous One Solution Cell proliferation Assay was carried out following the manufacturer's protocol. […]
After the incubation period the samples were analyzed immediately. Absorbance was recorded at 490 nm and measured by using a microplate reader Infinite® M Plex (Tecan, Switzerland).

[1] = system: human nasal cell line RPMI 2650; test: Permeation of semaglutide through human nasal cells; format: in vitro ADME; conditions: 0.5 mg/ml semaglutide in KRB with 5% arginine HCl versus KRB only
Method: All permeation studies were performed with RPMI 2650 models after 3 weeks of cultivation. Furthermore, the whole equipment was pre-warmed to 37° C. All steps were performed at 37° C. Prior to permeation, TEER values were measured using EVOM® combined with Endohm® Chamber from World Precision Instruments (WPI, Sarasota, Fla., US).
RPMI models were incubated for 60 min in KRB. Meanwhile sample solution containing excipients and active pharmaceutical ingredients were prepared. Subsequent to the incubation period, TEER values were determined again.
Before permeation, the KRB was removed from both sides of the RPMI models and 1200 μL KRB as acceptor volume were added. Then, 200 μL of the formulations (containing 0.5 mg/ml of Semaglutide each; reference formulation in KRB only, sample formulation in KRB containing 5% of arginine HCl) were applied to the apical surface of each RPMI model. With this step the permeation time was started. After two hours of exposition the acceptor was entirely removed, transferred to Eppendorf tubes and replaced by 1200 μL pre-warmed KRB. Four hours after starting the experiment the total amount of the acceptor was withdrawn again. During permeation the cell culture plates were shaken horizontally with 200 U/min at 37° C.

MDCK cells = test: Transepithelial electrical resistance (TEER) measurement; format: cell-based; conditions: 2.5% and 5%
Method: The cellZscope from nanoAnalytics (Munster, Germany) was used for continuous evaluation of TEER as a surrogate parameter of tight junction functionality. MDCK cells were grown on 1.12 cm^2, 1.0 μm transparent filter inserts (ThinCerts™, Greiner Bio-One, Frickenhausen, Germany) with a seeding density of 100,000 cells per well. The medium was changed at cultivation days 3, 4 and 5. TEER measurements were performed on day 5 when cells reached a resistance of approximately 3,500 Ω·cm^2 starting with the replacement of the growth medium by an equivalent volume of KRB, pH 7.4 (500 μL apical, 1,500 μL basolateral) and cell incubation for 60 min. After this preincubation, 250 μL of KRB was removed from the insert, and the same volume of double-concentrated sample solution (Arginine HCl in KRB) was added to the 250 μL KRB inside the insert to reach the desired concentration. Afterwards, impedance measurements were performed for 180 min with a frequency range of 1 Hz to 100 kHz at 37° C. and 5% CO2 inside the incubator.
Subsequently, the cells were carefully washed with fresh KRB and incubated in medium, and TEER was monitored up to 24 h in 30 min time intervals after the start of the experiment to evaluate TEER recovery. The results (shown in FIG. 7) are given as the relative TEER reduction, defined as the percentage change of the starting value corrected by the baseline value.

desmopressin [2] = molecular target: desmopressin
desmopressin [3] = molecular target: desmopressin; remark: listed apart in the source
[4] = molecular target: T1, PTH(1-34) (Homo sapiens (Human)) (UniProt P01270)
T1 sequence (peptide): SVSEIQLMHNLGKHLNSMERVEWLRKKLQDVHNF

[5] = molecular target: T1, PTH(1-34) (Homo sapiens (Human)); remark: listed apart in the source
[6] = molecular target: T1, PTH(1-34) (Homo sapiens (Human)); remark: listed apart in the source

**Q.** For `Cl.N=C(N)NCCC[C@H](N)C(=O)O` [arginine HCl, arginine hydrochloride], which cell viability (RPMI 2650 cells) is on record?
**A.** The cell viability was “Only a minor decrease in cell viability”.

**Q.** And the “permeation of semaglutide across human nasal cells” value [1]?
**A.** The value was “improves the permeation of semaglutide”.

**Q.** And the TEER (MDCK cells; 180 min)?
**A.** The TEER was “strong decrease in TEER”.

**Q.** What about the “reversibility of tight junction opening (TEER recovery)” value (MDCK cells; up to 24 h) of the same molecule?
**A.** The value was “fully reversible”.

**Q.** For chymotrypsin (enzyme), which Intact desmopressin after 5 hours incubation (%) (desmopressin [2]) is on record?
**A.** The Intact desmopressin after 5 hours incubation (%) was 7%.

**Q.** How did the Peptide recovery (desmopressin [3]) turn out when pancreatin (pool or library) was run?
**A.** The Peptide recovery was 20%.

**Q.** And the % intact PTH(1-34) [4]?
**A.** The % intact PTH(1-34) was 0%.

**Q.** Which Intact PTH(1-34) [5] does the source give for pepsin (enzyme) here?
**A.** Its Intact PTH(1-34) is 0%.

**Q.** What does the source list for trypsin (enzyme)?
**A.** % intact Adalimumab (adalimumab): 82%; Intact PTH(1-34) [6]: 0%
